We go through 1 molecule from patent US20090255014A1 (HELMHOLTZ ZENTRUM F R INFEKTIONSFORSCHUNG, published 2009).

For this assay, the target named is T1, native Cpn10 of Oleispira antarctica (Oleispira antarctica, UniProt Q8KM31 1-97).
T1 construct: Co-chaperonin; also called co-chaperonin Cpn10; co-chaperonin
T1 sequence: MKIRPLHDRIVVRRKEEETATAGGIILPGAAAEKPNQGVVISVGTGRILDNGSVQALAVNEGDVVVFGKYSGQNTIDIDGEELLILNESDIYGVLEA
Briefly: conclusion from in vitro refolding of denatured mtMDH with Cpn10 and ATP. The text has this: The behaviour of the stabilized single ring mutant led to the conclusion that at the low temperature, the co-chaperonin Cpn10 could bind even to the heptameric conformation, whereas at elevated temperature presumably Cpn10 could not be released from this heptameric single ring.

B1: stabilized single ring mutant Glu461Ala/Ser463Ala/Val464Ala of Cpn60 of O. antarctica (other)
chain: MAAKDVLFGDSARAKMLVGVNILADAVRVTLGPKGRNVVIEKSFGAPIITKDGVSVAREIELKDKFENMGAQMVKEVASQANDQAGDGTTTATVLAQAIISEGLKSVAAGMNPMDLKRGIDKATAAVVAAIKEQAQPCLDTKAIAQVGTISANADETVGRLIAEAMEKVGKEGVITVEEGKGLEDELDVVEGMQFDRGYLSPYFINNQEKMTVEMENPLILLVDKKIDNLQELLPILENVAKSGRPLLIVAEDVEGQALATLVVNNLRGTFKVAAVKAPGFGDRRKAMLQDLAILTGGQVISEELGMSLETADPSSLGTASKVVIDKENTVIVDGAGTEASVNTRVDQIRAEIESSTSDYDIEKLQERVAKLAGGVAVIKVGAGSEMEMKEKKDRVDDALHATRAAVEEGVVAGGGVALIRALSSVTVVGDNEDQNVGIALALRAMEAPIRQIAGNAGAAGAAVVDKVKSGTGSFGFNASTGEYGDMIAMGILDPAKVTRSSLQAAASIAGLMITTEAMVADAPVEEGAGGMPDMGGMGGMGGMPGMM
notes: also called triple mutant Glu461Ala/Ser463Ala/Val464Ala
Take B1: the binding result was “binds”.
